Consider two substances from paper PMC2836575.

pKd: −log10 of the molar value.

The target in test [1] is aprataxin FHA domain, recombinant, Lys38Ala (human) (UniProt Q7Z2E3). Description: ITC. A general note: Isothermal titration calorimetry measures the heat released or taken up as one component is titrated into another.
Test [2] has as its target aprataxin FHA domain, recombinant, wild type (human) (UniProt Q7Z2E3). Nature of the test: ITC.

What is called pKd is the negative decadic logarithm of the Kd, by convention in mol/L. “MDC1 14-residue peptide phosphorylated on S329 and T331”: the pKd is 4.10 in test [1] and 5.25 in test [2].
For “MDC1 14-residue peptide phosphorylated only on T331”, the pKd in test [2] is 4.24.
